Data taken from article PMC4157861.

Biological target: FHA domain of human kanadaptin (residues 149-276) (human) (UniProt Q9BWU0)
Assay: crystal structure; crystals from 1.6 M ammonium sulfate, 0.1 M citric acid pH 5.0, 277 K; space group P2(1)2(1)2(1); tag removed; one homodimer in the asymmetric unit

- stoichiometry N: 2
Substance: FHA domain of human kanadaptin (residues 149-276) (from UniProt Q9BWU0 149-276) (domain or fragment)
